Source: US9187525B2, “Methods of treating ophthalmic diseases using NPR-B agonists” (Shire Orphan Therapies GmbH, dated 2015)
Numbered stars: 1 amine (or outer) side, 2 acyl side, 3 side chain; on linkers, the order of the positions; unused ones are H or OH. Square brackets hold non-standard residues; d marks the D form. Ends that are not written are not given here. * marks the point of attachment. aFL = (S)-2-((R)-3-amino-2-oxopyrrolidin-1-yl)-3-phenylpropanoic acid, O=C1[C@H](N[*:1])CCN1[C@@H](Cc1ccccc1)C(=O)[*:2]; afL = (R)-2-((R)-3-amino-2-oxopyrrolidin-1-yl)-3-phenylpropanoic acid, O=C1[C@H](N[*:1])CCN1[C@H](Cc1ccccc1)C(=O)[*:2]; ctb = (S)-2-amino-3-(tert-butylthio)propanoic acid, CC(C)(C)SC[C@@H](N[*:1])C(=O)[*:2]; 6988 = 2-pentyl-benzooxazole-5-carboxylic acid, CCCCCc1nc2cc(C(=O)*)ccc2o1; 3421 = 3-Amino-4-hydroxy-benzoic acid, O=C(c1ccc(O[*:3])c(N[*:1])c1)[*:2]; 4703 = 3-(4-bromo-phenyl)-propionic acid, O=C(CCc1ccc(Br)cc1)*; 4734 = (4-butoxy-phenyl)-acetic acid, CCCCOc1ccc(CC(=O)*)cc1; Sni = (S)-nipecotic acid, O=C([C@H]1CCCN([*:1])C1)[*:2]; 1695 = Piperidine-1,2-dicarboxylic acid 1-benzyl ester; Butanoyl(4-(4-MeO-phenyl)) = COc1ccc(CCCC(=O)*)cc1; Phe(3-CF3) = N[C@@H](Cc1cccc(C(F)(F)F)c1)C(=O)O; Phe(2-CF3) = N[C@@H](Cc1ccccc1C(F)(F)F)C(=O)O; Pbf = Cc1c(C)c(S(=O)(=O)*)c(C)c2c1OC(C)(C)C2; Phe(3-Cl) = N[C@@H](Cc1cccc(Cl)c1)C(=O)O; Pentanoyl(5-Ph) = O=C(CCCCc1ccccc1)*; Gly(NCH2CH2Ph) = O=C(O)CNCCc1ccccc1; Gly(cPent) = N[C@H](C(=O)O)C1CCCC1; Hyp = O=C(O)[C@@H]1C[C@@H](O)CN1; 3Thi = N[C@@H](Cc1ccsc1)C(=O)O; NMeL = CN[C@@H](CC(C)C)C(=O)O; Chg = N[C@H](C(=O)O)C1CCCCC1; Nle = CCCC[C@H](N)C(=O)O; Nphe = O=C(O)CNCc1ccccc1; Octanoyl = CCCCCCCC(=O)*; Thz = O=C(O)[C@@H]1CSCN1; Che = not defined here; Hexanoyl = CCCCCC(=O)*; leu = not defined here; Occ = octanoic acid

T1: natriuretic peptide receptor-B (human)
T1 chain: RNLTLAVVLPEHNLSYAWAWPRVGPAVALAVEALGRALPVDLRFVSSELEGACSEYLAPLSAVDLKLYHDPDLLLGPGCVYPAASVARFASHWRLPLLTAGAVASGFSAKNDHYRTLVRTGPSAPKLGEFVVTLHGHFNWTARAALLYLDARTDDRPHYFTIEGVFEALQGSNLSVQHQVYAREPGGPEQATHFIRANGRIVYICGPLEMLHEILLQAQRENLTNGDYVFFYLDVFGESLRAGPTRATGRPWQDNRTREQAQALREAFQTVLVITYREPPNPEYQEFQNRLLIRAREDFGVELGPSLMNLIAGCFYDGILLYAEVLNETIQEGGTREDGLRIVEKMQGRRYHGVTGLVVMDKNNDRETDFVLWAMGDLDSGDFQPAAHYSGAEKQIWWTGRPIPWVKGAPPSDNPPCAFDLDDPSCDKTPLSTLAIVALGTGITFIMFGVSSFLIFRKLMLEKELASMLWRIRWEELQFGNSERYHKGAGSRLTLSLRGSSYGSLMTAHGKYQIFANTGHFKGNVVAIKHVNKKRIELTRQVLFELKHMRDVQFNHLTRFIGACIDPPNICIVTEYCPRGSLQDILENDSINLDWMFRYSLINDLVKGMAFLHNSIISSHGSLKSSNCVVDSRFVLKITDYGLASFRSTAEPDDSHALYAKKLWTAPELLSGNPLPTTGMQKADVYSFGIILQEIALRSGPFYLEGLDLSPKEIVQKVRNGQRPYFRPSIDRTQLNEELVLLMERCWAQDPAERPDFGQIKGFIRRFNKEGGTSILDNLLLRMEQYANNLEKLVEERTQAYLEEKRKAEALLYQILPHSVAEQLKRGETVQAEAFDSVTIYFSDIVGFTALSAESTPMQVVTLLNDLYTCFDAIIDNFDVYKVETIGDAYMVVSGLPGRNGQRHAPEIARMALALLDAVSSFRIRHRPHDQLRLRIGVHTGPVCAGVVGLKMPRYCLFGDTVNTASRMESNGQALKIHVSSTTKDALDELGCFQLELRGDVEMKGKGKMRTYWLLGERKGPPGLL


Biological target: T1, natriuretic peptide receptor-B
Experiment: cell-based or functional assay

EC50 group, cGMP in GTM-3 cells [µM]	Binder
≤ 15	[Occ][Sni][Nphe][leu]L[Hyp][NMeL]DRI-NH2 (reading uncertain; also: printed as Occ-Sni-NPhe-leu-Leu-Hyp-Nml-Asp-Arg-Ile-NH2) [JAL-1634]
≤ 15	6988-[Sni]F[dL]L[Hyp][NMeL]DRI-NH2 [JAL-1615]
≤ 1	[Occ][Sni][3Thi][leu]L[Hyp][NMeL]DRI-NH2 (reading uncertain; also: printed as Occ-Sni-Thk-leu-Leu-Hyp-Nml-Asp-Arg-Ile-NH2) [JAL-1620]
≤ 5	XXFGLKLDRI (HELM PEPTIDE1{[CCCCCCCC(=O)[*:2]].[O=C(C1CCCN([*:1])C1)[*:2]].F.G.L.K.L.D.R.I.[am]}$$$$V2.0; SMILES CCCCCCCC(=O)N1CCCC(C(=O)N[C@@H](Cc2ccccc2)C(=O)NCC(=O)N[C@@H](CC(C)C)C(=O)N[C@@H](CCCCN)C(=O)N[C@@H](CC(C)C)C(=O)N[C@@H](CC(=O)O)C(=O)N[C@@H](CCCNC(=N)N)C(=O)N[C@H](C(N)=O)[C@@H](C)CC)C1) [JAL-0697]
≤ 1	[Occ][Sni]F[leu]L[Hyp][NMeL]D[Thz][Che] (reading uncertain; also: printed as Occ-Sni-Phe-leu-Leu-Hyp-Nml-Asp-Eaz-Che) [JAL-1638]
≤ 15	[Occ][Sni][Gly(NCH2CH2Ph)][leu]L[Hyp][NMeL]DRI-NH2 (reading uncertain; also: printed as Occ-Sni-NHfe-leu-Leu-Hyp-Nml-Asp-Arg-Ile-NH2) [JAL-1635]
≤ 1	[Occ][Sni]F[ctb]L[Hyp][NMeL]DRI-NH2 [JAL-1623]
≤ 5	Octanoyl-[dA][dA]FGLKLDRI-NH2 [JAL-0701]
≤ 1	[Occ][Sni]F[leu][Nle][Hyp][NMeL]DRI-NH2 (reading uncertain; also: printed as Occ-Sni-Phe-leu-Nle-Hyp-Nml-Asp-Arg-Ile-NH2) [JAL-1624]
≤ 5	Hexanoyl-[3421][Sni]F[dL]L[Hyp][NMeL]DRI-NH2 (not fully specified; printed as Hex-(3421)-Sni-Phe-leu-Leu-Hyp-Nml-Asp-Arg-Ile-NH2) [JAL-1616]
≤ 1	{Pentanoyl(5-Ph)}-[Sni]F[dL]L[Hyp][NMeL]DRI-NH2 [JAL-1606]

The remaining lines, values behind:

Binder	EC50 group, cGMP in GTM-3 cells [µM]
[Occ][aFL][leu]L[Hyp][NMeL]DRI-NH2 (reading uncertain; also: printed as Occ-(aFL)-leu-Leu-Hyp-Nml-Asp-Arg-Ile-NH2) [JAL-1636]	≤ 5
[Occ][Sni][Phe(3-CF3)][leu]L[Hyp][NMeL]DRI-NH2 (reading uncertain; also: printed as Occ-Sni-Mtf-leu-Leu-Hyp-Nml-Asp-Arg-Ile-NH2) [JAL-1621]	≤ 1
{Pentanoyl(5-Ph)}-[dP]FGLKLDRI-NH2 [JAL-0696]	≤ 15
Octanoyl-[Sni][Phe(3-Cl)][dL]L[Hyp][NMeL]DRI-NH2 (not fully specified; printed as Occ-Sni-Mcf-leu-Leu-Hyp-Nml-Asp-Arg-Ile-NH2) [JAL-1618]	≤ 1
4703-[Sni]F[dL]L[Hyp][NMeL]DRI-NH2 [JAL-1612]	≤ 5
[Occ][Sni][Phe(2-CF3)][leu]L[Hyp][NMeL]DRI-NH2 (reading uncertain; also: printed as Occ-Sni-Otf-leu-Leu-Hyp-Nml-Asp-Arg-Ile-NH2) [JAL-1622]	≤ 15
1695-[Sni]F[dL]L[Hyp][NMeL]DRI-NH2 (not fully specified; printed as 1695-Sni-Phe-leu-Leu-Hyp-Nml-Asp-Arg-Ile-NH2) [JAL-1617]	≤ 15
[Occ][Sni]F[leu]L[Hyp][Gly(cPent)]DRI-NH2 (reading uncertain; also: printed as Occ-Sni-Phe-leu-Leu-Hyp-Cpg-Asp-Arg-Ile-NH2) [JAL-1626]	≤ 1
{Butanoyl(4-(4-MeO-phenyl))}-[Sni]F[dL]L[Hyp][NMeL]DRI-NH2 [JAL-1607]	≤ 15
[Occ][Sni]F[leu]L[Hyp]IDRI-NH2 (reading uncertain; also: printed as Occ-Sni-Phe-leu-Leu-Hyp-Ile-Asp-Arg-Ile-NH2) [JAL-1625]	≤ 1
[Occ][Sni]F[leu]L[Hyp][Chg]DRI-NH2 (reading uncertain; also: printed as Occ-Sni-Phe-leu-Leu-Hyp-Chg-Asp-Arg-Ile-NH2) [JAL-1627]	≤ 5
4734-[Sni]F[dL]L[Hyp][NMeL]DRI-NH2 [JAL-1609]	≤ 5
[Occ][afL][leu]L[Hyp][NMeL]DRI-NH2 (reading uncertain; also: printed as Occ-(afL)-leu-Leu-Hyp-Nml-Asp-Arg-Ile-NH2) [JAL-1637]	≤ 5
[Occ][Sni][Pbf][leu]L[Hyp][NMeL]DRI-NH2 (reading uncertain; also: printed as Occ-Sni-Pbf-leu-Leu-Hyp-Nml-Asp-Arg-Ile-NH2) [JAL-1619]	≤ 1
